Experimental data taken from patent US20180243432A1.

Target: human HLA-A2 MHC class I molecule on the surface of target cells with no C2 epitope-peptide delivered or added (human)
Test: flow cytometry, TCR STAR multimer staining of untreated (buffer only) target cells

## TCR CMV-pp65-PE STAR multimer reagent (Altor Bioscience Corp.)
  percent of cells stained: < 5%
